Test results taken from the DeepSol protein solubility set.

Assay: soluble on expression in E. coli; label from the status in PepcDB or PDB records

Sequence	soluble on expression in E. coli
MTSILNPVIRKEYSELKRPDLRGKFICASCGQHFQHNASLNRHRRLLHGNEHTCMMCDRKLNAKETIRDHMRNEHNLFQVFTCGCCNWSFSSKRQLSEHTKCIQGTGAPGDTIPIAKSCNAPGSLIQSTIQGTPPVVKTGRKRGGSLSSSSSVSTSISSRDVSGSPPPTEEEAERKVLFDNAVDTILQSKFFTYQQITEVDTWIKIIENANTLADTLQRINKTKKIKAEMPADKDVKRFKLEVE	not soluble
MTSLSVNDRKDFVDGQMKYWRQIAESDGFDIDDVPVPRGTRAGLWSVDCKHPRFRLRACLPKIYAMVGLHRYNLLRGTNFEHLELLKYNESMNCVCSYYITSVAVDLSSQLQKTFQIRVDEKSFGDLDLTVSVARPNDEEKVTTEKRFIHHFHCEAAADDFYKGALPDWPSVGDLNNQKRFYMVKKCELQSNDWIRLYLELAVGVRYQQTSESDLSKLQVLKVAIETKEEDVQPPNRRLKSKSLHVYITFKGLAKAPIGDEIGEHVERKAIVRRVIDERSGHLTLLGGFSNAKNDLNQSSDDEQPFGKRRRI	soluble
MTSLVRGQNTPLTSPQLTVTVSGVTPGSVDLMVFQVTTTGNVRSDSDFVFFNQPASPEGAVRLTGPSTVDVDVTKVPHSIDRLRLAVSMDDSAPGSLAAIPGLGVTLGSVSAPALGLTTERAAVLAEIYRRGEQWKIRNVSAGWDTGLKALVTEHGVVVDDAPSHPPAPTYPSTPPAQPPAPVIAPPAPTPTPAPQPRVQRSKITLTKASPTVSLAKGGDTGTMRVNLNWTRGRRGLFGGNGAIDLDLACLYQLNDGSKGVVQALGNAFGDLHYPPYIALDGDDRSGTNAGGENLHINLAHLADFKRILIFAYIYDGTPNWSAADGIVTLYPPHGPEVEVRLDSPDNRARSCAIALLKNERNELTVTREVRYINGTQSDISKAYRWGLKWTAGRK	not soluble
MTSSTGTRRLTAKGRATRDRIVAAAAQLMYERGVTGTSTEDILKAARVASPSQLYHYFGDKRGLVQAVIEHQTEQVLGFQKPLLSRLDSIEALEAWRDAVVEAQHARDCQGGCPLGSLASELSDLDPQARARLVAGYEQWGNAIREGLRSMRERGELDGGADPDRLALALLTALQGGLLMTQTRRDTIALEAVLNTMIDHIRFRTTP	soluble
MTSTPEFLKQLDYEQLKYCRELCDNRIRAIEAEEKKMAWAVTDGGINYGWFRTEDYMKAVECLVATAAERWEESDKADPSGRGWLDLSIRGSRLPVSEYEALFADGQWG	not soluble
MTSTSRPPARGSENNGSGGSDGSGSGEDKVKGPTDKELEDAVNKLVEVAKKKAQEEADQARRSVEGKKSFEGDVLEYPYTREEVTKMIEDGAKEIKERFAAVYTPKPDDFDTMISRMQQVEAVLGAYEPSKNTTKETPVIGGGGDLELLRTSVSDMSDWQGKLKNAFVDNYLTPFPRITVTQGGLARFLRHQAEWMQAIYKRRRYDAKKTADQGVEAIEAIDDSKGSEAAIALAAIIGLATLLGPMGSSLAFGLGTSAVVAGTGIGAEFIEEDKEVPLGADTVQGVIDNVYKALEESDKTMVEEEGKVLDALKQIEGVVYPLVMGPDIDKGTELTPMRPAIVDTMDVEELKDGITVYDRHPGGS	not soluble
MTSYDQIWETFLNNCETSDFDVPQQEEDIYKSIRNAILHFNNRLRDNLKADNSTETVNRELSEDDLLILAHFLRYIFLLNKKTLFENTWQPFTNDVGIKNFGTQLNSLKQSVMDQKDEIERLILNAAVDYLLEHHHHHH	not soluble
MTSYSLEDFNTPLECAPLARWERKRKEQLDRTSKTPNKTPQGDRFIPNRNVMNIEVSRLNLQQEYYGKENNQNSSSLLDSHMDNVEWNSGKDSPACHHYQSALASSLLQNSYHEEHPQSKILTFKQKAPKPQEGYVNSLKVLYSQNMPQISEQRKRMIRHIPQTPDRILDAPELVDDYYLNLLDWNHENILAVALGSSVYLWNASTGDIQELCNVSQDEMICSVSWVPDGHHLAVGTSMKDVQLWDTQRGRQVRKMHSHSSRVGCLAWNGPILSSGSRDTTIHHHDVRIAQHHVETLRGHEQEVCGLKWNVDGSQLASGGNDNLLMIWDHFHSNQPKYRLDHHHAAVKAIAWCPWQTHLLASGGGTADRTIKFWNTTTGACLQSIDTKSQVCALIWNRHDKEIVSSHGFSQNQLIVWKYPSMVKMAELTGHTSRVLHLSLSPDGQTVVSGAGDETLRFWRVFEASESKLKSSNKTLGHSQKSIMRTCNIR	soluble
MTTDAAVAELLALGELTVRGRIRDASNAALYCTVTHEGREAACVYKPVAGERPLWDFPDGTLAQREVAAYEVSEATGWGLVPPTVLRDGPYGEGMVQLWIETVPETELLALVDEEEPGPGWKGIALAEVGEGRTALLVHADDERLRRLAVLDAVINNADRKGGHLLPAAGERLYGIDHGVTFNAENKLRTLLWGWAGDALTGEALAVLDALRRALKDGGTLALRLAALITPAELDATRARVDALLASGKHPEPGGEWPAIPWPPVLEHHHHHH	not soluble
MTTDFTPWPEALAAQYRQLGYWQDKTLLDYLQQSAERTPNALALVGDNQQWRYQAMLERIEQLAAGFTELGLGCGDNVVLQLGNVAEFYLCFFALLRQGIRPILALPAHRLAEIRYFCQHSQAKAYLIDGAQRPFDYQALAQELLACCPTLQTVIVRGQTRVTDPKFIELASCYSASSCQANADPNQIAFFQLSGGTTGTPKLIPRTHNDYAYSVTASVEICRFDQHTRYLCVLPAAHNFPLSSPGALGVFWAGGCVVLSQDASPQHAFKLIEQHKITVTALVPPLALLWMDHAEKSTYDLSSLHFVQVGGAKFSEAAARRLPKALGCQLQQVFGMAEGLVNYTRLDDSAELIATTQGRPISAHDQLLVVDEQGQPVASGEEGYLLTQGPYTIRGYYRADQHNQRAFNAQGFYITGDKVKLSSEGYVIVTGRAKDQINRGGEKIAAEEVENQLLHHPAVHDAALIAISDEYLGERSCAVIVLKPEQSVNTIQLKRFLHQAGLADYKIPDQIQFIDQLPKTSVGKIDKNALRRRFDTLGLALMS	not soluble
MTTDQSKLEAINQALRAQRQLVRQLDDQQASLERQLQGLTGDSAGWAADTDPALGHVLEAFHALLGSLTESLSQGDAAQLLARCAAELLPDTTGAIFVDQAGVEPANRAIAAWRGAELLTDPNALHYECTEDQAAHRLNIEAQGLYLGVVELRPLSPGRALRAREQQTLQMLASAAGLALATHTLRYRLRHRNVRDPLTGLFNRRYAEDTLERELHRAQRHQLPLSVVLIDLDRFEAYNQRHGQNAGDRMLQAMSDLLQHSFRGSDICARAAGQRFLLVLPEAAIRDAIERANDLRRELAKVRVHLRGLHLPAMTVSMGVAGYPEHADSSDDLMAAADAALQLAKHSGGNTCALAEKVPLSPHNE	soluble
MTTEKINLLDFDRKGLRTFFAEELGEKAFRAEQVMKWIYHFGCDDFDQMNNINKQLREKLKAKCEIRAPYVSEAQHSADGTIKWAMRVGDQDVETVYIPEDDRATLCVSSQVGCALECKFCSTAQQGFNRNLRVSEIIGQVWRAAREIGLEKETGRRPITNVVMMGMGEPLLNMKNLIPALEIMLDDLGFGLSKRRVTVSTSGVVSGLEQMIGQIDVALAISLHAPNDKLRSEIMPINDRWNIEAFLEVVRRYIASSNANRGKVTVEYVLLDHVNDGTEHAHELAELLKGTPCKINLIPFNPYPGSPYKKPSNSRIDRFQKTLMQYEHTVTIRKTRGDDIDAACGQLVGDVIDRTKRTKAKQFDGQAIPVKTL	not soluble
MTTGNNDFYYSNKYEDDEFEYRHVHVTKDVSKLIPKNRLMSETEWRSLGIQQSPGWMHYMIHGPERHVLLFRRPLAATQKTGGNVRSGNAVGVR	not soluble
MTTHLNPPQEAPYMKNATFYLLDNDTTVNGLSAVEQLVCEIAAERWRAGKRVLIACEDEKQAIRLDEALWARPAESFVPHNLAGEGPRGGAPVEIAWPQKRNSSPRDILISLRTSFADFATAFTEVVDFVPYEETLKQLARERYKAYRVAGFNLNTATWK	not soluble
MTTKRKETRESVCYREIKKKIRNGELKPGDRLIENTLSEQLGISRTPIRKAIGMLAADGYVEYNDFRGAFVRDSIINKERYFEMTEILGLFLKQAIQKIRTKKISFNKMRVVAKLVEIERDVEPSDPAVYFEYEKWFVNDLLTYMKNNYYLKISNDFFNNIQEFGDEEVIKIAQNACVKTIANIQRFIDALEAQNYDECMAIIDQVIDAHVLVAYR	not soluble
MTTLFISDLHLDPARPAITELFLDFLRTQVPGSDALYILGDLFEAWIGDDTPSTAADAVAEALHAVATTGVPVFFMPGNRDFLVGAAYAQRAGFRILPDPTVIDLYGQPTLLMHGDLLCTDDTAYQAFRAQTRDPAFQAQFLSQPLAARVAFAQQARAASHARQSELKQGDQAQFETVTDVAPAEVDATFVRYGLDRIIHGHTHRPAIHTVQAGGRTCTRVVLGDWYEQGSVLRVDADGLALEQLALLEHHHHHH	soluble
MTTLSHVEALCALEQPYRADAECDRLFDAAMRELVDYHCEHSPGYRRWLEQNGFTPERLAGLSDWSQLPPIFANYFKRRLLLSTSGEDALELTSSGTTGQKSRMRYDERSIGAAQRMVDRIFDHYGWNTPQQPCNYLLLSYEPAGAITLGTAYTDQFLCKYAPVKRAVYALRHNGKGNEFDPFGAIRALQEFAAEGLPVRIFGFPAFLWFALERMRDMGLPPLALHPESLVFLGGGWKTHADQAIPKAELYRRLGEQLGLPDARCRDGYGSVEHPVPYVECTNHRFHVPSWARAWARDTATLARLPYGEAGFLHLVSPYITSSPAHSMLLSDLAVLQLAERCGCGLATDWFELLGRAGTSKSRSCAMAASELIKESLEHHHHHH	soluble
MTTSDSRSFMYRLLKFISRQPIQLSRLFARMLAGLVNTLKLTKTSRTIQLNLKITLPYLNDQQRERIIQNAIRNELTSYMEFFSIWGSSNQKNISRIHHVEGADFFHQAIAENKGIVLIVPHFGTWEIMNAWCAQYTDMTILYKPVKDKDADRFVREARSREQAKLVPTDESGVRQIFKALKQGGTTVILPDHTPNVGGEMVDYFGIPLASSNLSAKLIQKTKAKALFLYAIRNENHGFDMFIEPMDPAIYQGTDHDGTLVIHHAIEDLIRKYPDHYHWSYKRFKA	not soluble
MTTTGIIAEFNPFHNGHKYLLDQAHGLKIVAMSGNFVQRGEPAIIDKWTRAQMALENGADLVVELPFLVAVQSADYFASGAVDILAKLGIDTLAFGTETALDYNGLSTIYGKMAEQMSEFLTTLPEKLSYPQKTQLMWEKFAGVQFTGDTPNHILALAYAKACAGRNIRLRPIQRRGADYHSTEKTVAYASATSLRHHRQDPAFVAKSMPNANLFQTSPQVTWEDYFTLLQYQVLTQPDLTQLFQVNEELAIRIKKAIRQVTSFDQLVETVATKRYTKARVRRILIYILIGARETSLPQDVHILGFTAAGRTHLSHIKNKTRIISRIGSQPWDALTQQADQVYQLGNPKIAEQTWGRVPI	not soluble
MTTVRIPAGWPATEEEARAVQDELRGRVILDEPGPPPGTGRVTGVDVAYDDERDVVVAAAVVLDAATLDVVAEATAVGEVSFPYVPGLLAFREIPTVLAALDALPCPPGLIVCDGYGVAHPRRFGLASHLGVLTGLPTIGVAKNPFTFSYEDPGAPRGSAAPLLAGADEVGRALRTQSGVKPVFVSVGHRVDLDHACAHTLALTPKYRIPETTRRADSLCRRALKEATALEHHHHHH	soluble
